Source: patent US20220175814A1
Blank lines part the entries; values can stand above or below the substance they belong to.

Legend:
[1] = target: PD-L1 on A431 cells (UniProt Q9NZQ7); assay: flow cytometry on A431 cells, negative control
[2] = target: PD-L1 on RENCA HER2 cells (mouse) (UniProt Q9EP73); assay: flow cytometry on RENCA HER2 cells, isotype control, 1 h
[3] = target: PD-L1 on A431 cells (UniProt Q9NZQ7); assay: flow cytometry, A431 cells treated 5 h with 0.125 µg/ml PEI-PEG-EGF/polyIC, stained 40 min on ice
[4] = target: PD-L1 on A431 cells (UniProt Q9NZQ7); assay: flow cytometry, untreated control A431 cells, stained 40 min on ice
[5] = target: PD-L1 on RENCA HER2 cells (mouse) (UniProt Q9EP73); assay: flow cytometry, RENCA HER2 cells treated 24 h with 1 microgram/ml polyIC/PPHA, stained with PE anti-mouse PD-L1 10F.9G2, 1 h
[6] = target: PD-L1 on RENCA HER2 cells (mouse) (UniProt Q9EP73); assay: flow cytometry, untreated RENCA HER2 cells stained with PE anti-mouse PD-L1 10F.9G2, 1 h

UniProt Q9EP73, sequence (Q9EP73 19-290): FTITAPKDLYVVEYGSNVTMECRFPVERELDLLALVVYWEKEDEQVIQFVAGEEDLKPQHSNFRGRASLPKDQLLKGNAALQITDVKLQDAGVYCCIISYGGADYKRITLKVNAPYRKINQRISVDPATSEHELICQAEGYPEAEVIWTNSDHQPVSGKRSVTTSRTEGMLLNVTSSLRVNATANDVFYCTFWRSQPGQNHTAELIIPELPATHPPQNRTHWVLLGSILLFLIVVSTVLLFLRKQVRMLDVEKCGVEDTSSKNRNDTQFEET
UniProt Q9NZQ7, sequence (Q9NZQ7 19-290 limits assumed): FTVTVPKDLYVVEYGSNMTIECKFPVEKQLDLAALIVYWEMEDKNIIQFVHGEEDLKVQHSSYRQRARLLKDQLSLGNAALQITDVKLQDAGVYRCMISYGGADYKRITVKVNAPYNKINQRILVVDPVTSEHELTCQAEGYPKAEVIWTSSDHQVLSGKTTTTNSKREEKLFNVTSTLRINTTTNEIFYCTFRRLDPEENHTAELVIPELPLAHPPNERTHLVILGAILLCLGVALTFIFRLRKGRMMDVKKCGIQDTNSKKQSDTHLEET

MFI [1]: 13
Substance: Isotype control (Example 1, A431 staining) (antibody)

median PE-A (Calculated raw values of medians using x-axis channel(s): PE-A) [2]: 3.19
Substance: Isotype control (Example 6, RENCA HER2 staining) (antibody)

MFI [3]: 751
MFI [4]: 431
Substance: PD-L1-PE labelled antibody (Biolegend, cat #393607)

median PE-A (Calculated raw values of medians using x-axis channel(s): PE-A) [5]: 322
median PE-A (Calculated raw values of medians using x-axis channel(s): PE-A) [6]: 163
Substance: phycoerythrin (PE)-conjugated anti-mouse PD-L1 antibody CD274 (PD-L1, B7-H1) [10F.9G2] Tonbo cat #50-1243-U025
